Data published in US6479250 (Amgen, dated 2002).

How the values were obtained:
rat Eck receptor (rat) = rat Eck receptor (rat) (UniProt D3ZBN3); assay: cell-based or functional assay
[1] = target: T1, eck receptor extracellular domain (eck-x), soluble, expressed in CHO cells (human, UniProt P29317 24-537); assay: BIAcore, EBP on immobilized eck-x
T1 construct: extracellular domain; The construct ends at Asn534 (numbering of the eck cDNA of Lindberg et al.); Immobilized on BIAcore chips or on CNBr-Sepharose; also called soluble eck receptor; recombinant human Eck extracellular domain
T1 sequence (P29317 24-537): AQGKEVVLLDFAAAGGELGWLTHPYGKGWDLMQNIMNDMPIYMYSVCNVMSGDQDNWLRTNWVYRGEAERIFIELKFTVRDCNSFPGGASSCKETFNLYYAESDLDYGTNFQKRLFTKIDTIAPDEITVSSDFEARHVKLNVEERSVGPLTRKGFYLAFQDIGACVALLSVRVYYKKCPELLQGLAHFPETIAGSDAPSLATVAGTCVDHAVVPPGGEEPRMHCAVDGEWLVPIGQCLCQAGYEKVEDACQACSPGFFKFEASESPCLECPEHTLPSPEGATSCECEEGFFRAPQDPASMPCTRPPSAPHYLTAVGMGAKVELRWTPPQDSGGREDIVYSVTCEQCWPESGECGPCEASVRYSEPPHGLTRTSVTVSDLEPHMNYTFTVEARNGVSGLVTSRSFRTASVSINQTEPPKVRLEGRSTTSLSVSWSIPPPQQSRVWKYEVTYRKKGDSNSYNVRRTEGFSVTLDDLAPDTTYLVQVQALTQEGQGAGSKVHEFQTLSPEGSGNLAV

[2] = target: T2, eck receptor (p130^eck), full length, on LIM 2405 cells or on CHO 19.32 cells transfected with the full … (human, UniProt P29317 24-976); assay: Scatchard analysis of steady-state binding of 125I-rEBP to LIM2405 cells, 0° C.
T2 construct: whole, on cells; also called EBP receptors
T2 sequence (P29317 24-976): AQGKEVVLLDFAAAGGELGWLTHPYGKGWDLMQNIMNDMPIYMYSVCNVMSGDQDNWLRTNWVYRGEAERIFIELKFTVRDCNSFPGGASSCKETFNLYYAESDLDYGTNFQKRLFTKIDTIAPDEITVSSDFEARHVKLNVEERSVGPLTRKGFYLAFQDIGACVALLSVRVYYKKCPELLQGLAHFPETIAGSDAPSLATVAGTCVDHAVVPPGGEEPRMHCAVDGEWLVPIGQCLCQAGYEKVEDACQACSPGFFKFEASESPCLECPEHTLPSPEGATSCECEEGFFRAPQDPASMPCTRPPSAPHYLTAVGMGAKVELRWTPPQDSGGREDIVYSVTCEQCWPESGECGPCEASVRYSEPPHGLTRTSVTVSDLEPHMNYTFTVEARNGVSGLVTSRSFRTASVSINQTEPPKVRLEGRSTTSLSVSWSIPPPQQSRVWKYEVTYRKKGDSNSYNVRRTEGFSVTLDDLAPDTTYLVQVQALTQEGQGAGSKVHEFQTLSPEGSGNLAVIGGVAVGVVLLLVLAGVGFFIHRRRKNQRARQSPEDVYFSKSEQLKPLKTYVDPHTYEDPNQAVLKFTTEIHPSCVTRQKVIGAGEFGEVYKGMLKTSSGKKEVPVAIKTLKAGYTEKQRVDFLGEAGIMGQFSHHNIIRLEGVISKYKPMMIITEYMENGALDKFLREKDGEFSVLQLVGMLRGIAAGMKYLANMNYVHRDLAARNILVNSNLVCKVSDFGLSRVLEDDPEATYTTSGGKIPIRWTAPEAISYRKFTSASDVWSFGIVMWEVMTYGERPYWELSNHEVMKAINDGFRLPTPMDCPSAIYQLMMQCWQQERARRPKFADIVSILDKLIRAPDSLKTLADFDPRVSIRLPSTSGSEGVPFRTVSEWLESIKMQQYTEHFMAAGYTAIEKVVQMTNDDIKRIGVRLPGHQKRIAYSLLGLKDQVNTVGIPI
Experimental: Nonspecific binding was determined from parallel reactions containing a 50 fold excess of unlabeled EBP.

Sequence of rat Eck receptor (rat) (D3ZBN3 entry or part of it limits assumed, form in doubt): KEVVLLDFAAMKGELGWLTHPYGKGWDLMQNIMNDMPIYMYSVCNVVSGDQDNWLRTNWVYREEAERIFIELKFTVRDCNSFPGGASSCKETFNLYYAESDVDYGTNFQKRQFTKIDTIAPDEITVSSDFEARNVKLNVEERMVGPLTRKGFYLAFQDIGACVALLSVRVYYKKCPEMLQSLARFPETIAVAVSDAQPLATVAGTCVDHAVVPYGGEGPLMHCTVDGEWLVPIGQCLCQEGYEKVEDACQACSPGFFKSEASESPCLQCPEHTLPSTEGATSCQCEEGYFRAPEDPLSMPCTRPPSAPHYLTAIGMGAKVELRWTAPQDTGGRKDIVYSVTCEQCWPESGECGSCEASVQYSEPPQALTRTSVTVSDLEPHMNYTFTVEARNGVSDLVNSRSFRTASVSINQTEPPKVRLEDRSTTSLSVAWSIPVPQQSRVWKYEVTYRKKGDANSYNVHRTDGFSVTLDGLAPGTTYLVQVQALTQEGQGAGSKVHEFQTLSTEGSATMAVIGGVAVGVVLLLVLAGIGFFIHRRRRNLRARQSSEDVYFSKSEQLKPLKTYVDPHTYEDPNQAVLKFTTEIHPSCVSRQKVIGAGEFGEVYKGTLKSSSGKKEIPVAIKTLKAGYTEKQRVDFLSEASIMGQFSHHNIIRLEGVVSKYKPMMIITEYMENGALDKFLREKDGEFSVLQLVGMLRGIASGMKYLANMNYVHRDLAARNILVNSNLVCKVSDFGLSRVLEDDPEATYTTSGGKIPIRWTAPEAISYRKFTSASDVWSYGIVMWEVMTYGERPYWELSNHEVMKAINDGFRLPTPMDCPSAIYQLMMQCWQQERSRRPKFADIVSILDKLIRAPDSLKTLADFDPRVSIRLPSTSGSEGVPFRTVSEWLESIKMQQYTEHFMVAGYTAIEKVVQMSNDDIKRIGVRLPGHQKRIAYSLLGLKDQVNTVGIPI

B1: recombinant EBP from CHO cells transfected with the EBP gene (ligand)
chain: DRHTVFWNSSNPKFRNEDYTIHVQLNDYVDIICPHYEDHSVADAAMEQYILYLVEHEEYQLCQPQSKDQVRWQCNRPSAKHGPEKLSEKFQRFTPFTLGKEFKEGHSYYYISKPIHQHEDRCLRLKVTVSGKITHSPQAHVNPQEKRLAA
notes: the entry may begin with a leader at negative positions; also called CHO rEBP; rEBP
B1 was tested, and the ED50 of survival of embryonic rat spinal cord neurons after 9 days in culture (rat Eck receptor (rat)) was less than 10 µg/mL, the enhancement of survival of embryonic rat spinal cord neurons after 9 days in culture (rat Eck receptor (rat)) was less than 84% and the Kd [1] was roughly 24 nM. The Kd [2] was 28 nM.
